What was measured:
Test in all cases: SEC
[1] = biological target: recombinant motavizumab dimeric IgA1 (UniProt P01591)
[2] = biological target: recombinant palivizumab dimeric IgA2 (UniProt P01591)
[3] = biological target: recombinant motavizumab dimeric IgA2 (UniProt P01591)
[4] = biological target: recombinant palivizumab dimeric IgA1 (UniProt P01591)

Measured: sIgA formation

secretory component (domain or fragment)
100%: [1] | [2] | [3] | [4]

Source: paper PMC5939987
